Laboratory results taken from US20250388643A1, “GLUCAGON-LIKE PEPTIDE-2 COMPOSITIONS AND METHODS OF MAKING AND USING SAME” (Amunix Pharmaceuticals, Inc., priority 2011, published 2025).
“Also recorded” adds a separate entry of the source.

Test system: indomethacin-induced intestinal inflammation in Wistar rats
Experiment: Rat Crohn's Disease indomethacin-induced intestinal inflammation model, Study 1
Assay type: in vivo
Description: To determine the efficacy of GLP2-XTEN using single dose or qd dosing, the GLP2-2G-XTEN-AE864 fusion protein was evaluated in a rat model of Crohn's Disease of indomethacin-induced intestinal inflammation in three separate studies.
Study 1: Intestinal inflammation was induced in eighty male Wistar rats (Harlan Sprague Dawley) using indomethacin administered on Days 0 and 1 of the experiment. The rats were divided into seven treatment groups for treatment according to Table 19.
All treatments were administered per the schedule starting on Day −3 of the experiment. Body weights were determined daily. Groups 3 and 5 were dosed equimolar/day. On Day 2 (24 hours post-2nd indomethacin dose), the animals were prepped for sacrifice and analysis. Thirty minutes prior to sacrifice, the rats were injected intravenously with 1 ml 1% Evans Blue dye, in order to visualize ulcers and extent of inflammation by histopathology analysis. The rats were anesthetized (SOP 1810), blood samples were removed to determine the concentration of GLP-2-2G-XTEN using the anti-XTEN/anti-GLP2 ELISA method. The rats were euthanized then necropsied and scored by gross examination of the intestines for the presence of adhesions; i.e., none=0, mild=1, moderate=2, or severe=3. The small intestines were removed and the length of each was recorded. In each small intestine, a longitudinal incision was made and the interior was examined. The degree and length of the ulcerated area was recorded as a score; i.e., none=0, few=1, multiple=2, or continuous=3. For TNFα determination, intestinal samples were thawed and homogenized in a total of 20 ml with DPBS. The supernatants were equilibrated to room temperature and assayed for TNFα by ELISA (R&D Systems, Cat. RTA00, lot 281687, exp. 7 Sep. 2011). The samples for Group 1 were assayed undiluted. The samples for Groups 2-7 were diluted 1:4. For histopathology, the small intestines were gently washed with saline to remove the fecal material and were blotted to remove excess fluid. Each small intestine was weighed then processed for histopathology examination to quantitate the degree of inflammation; i.e., 0.0%=0, 1-33%=1, 34-66%=2, 67-100%=3.

B1: GLP2-2G-XTEN_AE864: fusion protein of GLP-2 with glycine at position 2 linked at the C-terminus to XTEN AE864; sequence of FIG. 28 (SEQ ID NO: 798) (protein)
chain: HGDGSFSDEMNTILDNLAARDFINWLIQTKITDGGSPAGSPTSTEEGTSESATPESGPGTSTEPSEGSAPGSPAGSPTSTEEGTSTEPSEGSAPGTSTEPSEGSAPGTSESATPESGPGSEPATSGSETPGSEPATSGSETPGSPAGSPTSTEEGTSESATPESGPGTSTEPSEGSAPGTSTEPSEGSAPGSPAGSPTSTEEGTSTEPSEGSAPGTSTEPSEGSAPGTSESATPESGPGTSTEPSEGSAPGTSESATPESGPGSEPATSGSETPGTSTEPSEGSAPGTSTEPSEGSAPGTSESATPESGPGTSESATPESGPGSPAGSPTSTEEGTSESATPESGPGSEPATSGSETPGTSESATPESGPGTSTEPSEGSAPGTSTEPSEGSAPGTSTEPSEGSAPGTSTEPSEGSAPGTSTEPSEGSAPGTSTEPSEGSAPGSPAGSPTSTEEGTSTEPSEGSAPGTSESATPESGPGSEPATSGSETPGTSESATPESGPGSEPATSGSETPGTSESATPESGPGTSTEPSEGSAPGTSESATPESGPGSPAGSPTSTEEGSPAGSPTSTEEGSPAGSPTSTEEGTSESATPESGPGTSTEPSEGSAPGTSESATPESGPGSEPATSGSETPGTSESATPESGPGSEPATSGSETPGTSESATPESGPGTSTEPSEGSAPGSPAGSPTSTEEGTSESATPESGPGSEPATSGSETPGTSESATPESGPGSPAGSPTSTEEGSPAGSPTSTEEGTSTEPSEGSAPGTSESATPESGPGTSESATPESGPGTSESATPESGPGSEPATSGSETPGSEPATSGSETPGSPAGSPTSTEEGTSTEPSEGSAPGTSTEPSEGSAPGSEPATSGSETPGTSESATPESGPGTSTEPSEGSAPG
0.5 mg/kg peptide, both fusion protein groups, compared to diseased control Group 2, FIG. 21C
  small intestine weight: significant increase
6 mg/kg fusion protein
  ulceration score: not significantly different from the non-diseased control
2 and 6 mg/kg fusion protein
  scores of adhesions and transulceration: not significantly different from the non-diseased control
FIG. 21B
  small intestine length: significant increase; also recorded: length equivalent to the non-diseased control
FIG. 21D
  ulceration (gross pathology scoring of small intestine): significant decreases in ulceration
FIG. 21F
  small intestine inflammation score: neither the GLP-2-2G peptide nor the GLP-2-2G-XTEN fusion protein treatments showed a significant effect on inflammation
Compared to disease control (Group 2), FIG. 21A
  body weight at termination: demonstrated a significant increase
Compared to diseased control (Group 2), FIG. 21E
  scores of adhesions and transulceration: significant decreases
Compared to diseased control Group 2, FIG. 21G
  TNFα in small intestine (ELISA): significantly decreased cytokine levels
Equal nmol/kg dosing
  efficacy in improving indomethacin-induced small intestine damage: as good or better than GLP2-2G peptide
